Experimental data published in patent publication US20130266567A1 (published 2013).
Where a chain is given by its changes, count along the chain named. Values joined by “and” are separate entries in the source; they are usually repeats but may differ in a detail not shown here. Equal entries are not always repeated.

B1: DOM7r-36-107 (VHH)
VHH: EVQLLESGGGLVQPGGSLRLSCAASGFTFNHYTMGWVRQAPGKGREWVSLIHPSGTVTYYADSVKGRFTISRDNSKNTLYLQMNSLRAEDTAVYYCAKWEKKYFDYWGQGTLVTVSS
notes: VH immunoglobulin single variable domain (dAb, AlbudAb), not a camelid VHH; tested with a myc tag; not shown: myc tag
B2: DOM7r-92-100 (VHH)
VHH: EVQLLESGGGLVQPGGSLRLSCAASGFTFDTSSMLWVRQAPGKGLEWVSVIHQSGTPTYYADSVKGRFTISRDNSKNTLYLQMNSLRAEDTAVYYCAKFPSSRMKFDYWGQGTLVTVSS
notes: VH immunoglobulin single variable domain (dAb, AlbudAb), not a camelid VHH; tested with a myc tag; MALLS: dimer 10%, monomer 90%; also called DOM7r-92-100 myc; not shown: myc tag
B3: DOM7r-31-104 (VHH)
VHH: EVQLLESGGGLVQPGGSLRLSCTASGFTFRHYRMGWVRQAPGKGLEWVSWIRPDGTFTYYADSVKGRFTISRDNSKNTLYLQMNSLRAEDTAVYYCAKSYMAGTFDYWGQGTLVTVSS
notes: as for B1
B4: DOM7r-92-101 (VHH)
VHH: B2 VHH with S102R, R103K, W109R
notes: as for B1
B5: DOM7r-92-102 (VHH)
VHH: B2 VHH with R103Q, M104F, K105R
notes: as for B1
B6: DOM7r-92-4 (VHH)
VHH: B2 VHH with S102T, R103H, M104G
notes: VH immunoglobulin single variable domain (dAb, AlbudAb), not a camelid VHH; tested with a myc tag; also called 7r92-4 (Parent); not shown: myc tag
B7: DOM7r-92-103 (VHH)
VHH: B2 VHH with S102E, R103G, K105N
notes: as for B1
B8: DOM7r-31-100 (VHH)
VHH: B3 VHH with S7P, M101L, A102S
notes: as for B1
B9: DOM7r-31-103 (VHH)
VHH: B3 VHH with T91A, A102S
notes: as for B1
B10: DOM7r-31-101 (VHH)
VHH: B3 VHH with M101Q
notes: as for B1
B11: DOM7r-31-102 (VHH)
VHH: B3 VHH with M101H, G103D, T104K
notes: as for B1
B12: DOM7r-36-2 (VHH)
VHH: B1 VHH with E100S, K101S, K102R, Y103A
notes: VH immunoglobulin single variable domain (dAb, AlbudAb), not a camelid VHH; tested with a myc tag; also called 7r36-2 (Parent); not shown: myc tag
B13: DOM7r-36-101 (VHH)
VHH: B1 VHH with E100F, K101L, Y103S
notes: as for B1
B14: DOM7r-36-108 (VHH)
VHH: B1 VHH with I70T, W99L, K101G, K102R, Y103S
notes: as for B1
B15: DOM7r-36-100 (VHH)
VHH: B1 VHH with K101R, K102R, Y103T
notes: as for B1
B16: DOM7r-36-106 (VHH)
VHH: B1 VHH with W99F, E100R, K101G, K102R, Y103G
notes: as for B1
B17: DOM7r-36-105 (VHH)
VHH: B1 VHH with W99L, E100G, K101T, Y103V
notes: as for B1
B18: DOM7r-36-103 (VHH)
VHH: B1 VHH with I70T, E100D, K101R, Y103L, Y106H
notes: as for B1
B19: DOM7r-36-102 (VHH)
VHH: B1 VHH with E100F, K101Y, K102R, Y103N
notes: as for B1
B20: DOM7r-36-104 (VHH)
VHH: B1 VHH with E100A, K101T, K102R, Y103G
notes: as for B1
B21: DOM7r-31-14 (VHH)
VHH: B3 VHH with G103D, T104R
notes: VH immunoglobulin single variable domain (dAb, AlbudAb), not a camelid VHH; tested with a myc tag; also called 7r31-14 (Parent); not shown: myc tag

The binders below were run against T1, Rabbit serum albumin (rabbit, UniProt P49065 25-608) (assay: SPR, BIAcore T100).
Method: (§1) Cross-reactivity of the AlbudAbs™ (ie, anti-serum albumin dAbs) was determined against human, Cynomolgus monkey (cyno), rat and mouse serum albumin using surface plasmon resonance (SPR). In this case, Biacore™ was used. Biacore™ 2000/3000 was used for the supernatant screens and determination of binding kinetic all of dAbs described herein. Biacore™ T100 was used for the determination of cross-reactivity of lead Vk and VH Albudabs to a wider range of species' SAs (12 in total). Protein samples were run on the T100 BIAcore as described for the BIAcore2000/3000 experiments. […] Where appropriate, a kinetic Langmuir 1:1 fitting model was used.

| Binder | binding result |
| --- | --- |
| B1 | no binding (tested: dilution series from 5 uM down to 39 nM) |

What follows are binders tested against T2, Human serum albumin (human, UniProt P02768 25-609) (assay: SPR, BIAcore T100, equilibrium KD).
T2 construct: coupled to CM5 BIAcore chip; also called human SA; HSA
Method: as §1

| Kd [nM] | Binder |
| --- | --- |
| 3.56 | B2 |
| 25.9 | B3 |
| 18.3 | B1 |

These binders were tested against T3, Cynomolgus serum albumin (Cynomolgus monkey, UniProt A2V9Z4 25-608) (assay: SPR, BIAcore T100, equilibrium KD).
T3 construct: mature; purified native protein; coupled to CM5 BIAcore chip; also called cyno SA; CSA
Method: as §1

| Kd [nM] | Binder |
| --- | --- |
| 10.7 | B2 |
| 21.4 | B1 |

These binders were tested against T4, Rat serum albumin (rat, UniProt P02770 25-608) (assay: SPR, BIAcore T100, equilibrium KD).
T4 construct: coupled to CM5 BIAcore chip; also called rat SA; RSA
Method: as §1

| Kd [nM] | Binder |
| --- | --- |
| 54.3 | B2 |
| 6.09 | B3 |
| 99.2 | B1 |

Each binder was assayed against T5, Mouse serum albumin (mouse, UniProt P07724 25-608) (assay: SPR, BIAcore T100, equilibrium KD).
T5 construct: mature; bought purified protein; coupled to CM5 BIAcore chip; also called mouse SA; MSA
Method: as §1

| Kd [nM] | Binder |
| --- | --- |
| 61.5 | B2 |
| 59.5 | B3 |
| 143 | B1 |

Each binder was assayed against Marmoset serum albumin (marmoset) (assay: SPR, BIAcore T100, equilibrium KD).
Method: as §1

| Kd [nM] | Binder |
| --- | --- |
| 7.37 | B2 |
| 4900 | B3 |
| 111 | B1 |

Each binder was assayed against Dog serum albumin (dog, UniProt P49822 25-608) (assay: SPR, BIAcore T100, equilibrium KD).
Method: as §1

| Kd [nM] | Binder |
| --- | --- |
| 450 | B2 |
| 8.26 | B3 |
| 719 | B1 |

The binders below were run against Ferret serum albumin (ferret) (assay: SPR, BIAcore T100, equilibrium KD).
Method: as §1

| Kd [nM] | Binder |
| --- | --- |
| 317 | B2 |
| 13.9 | B3 |
| 740 | B1 |

What follows are binders tested against Pig serum albumin (pig, UniProt P08835 25-607) (assay: SPR, BIAcore T100, equilibrium KD).
Method: as §1

| Kd [nM] | Binder |
| --- | --- |
| 191 | B2 |
| 415 | B3 |
| 818 | B1 |

The binders below were run against Mini Pig serum albumin (mini pig) (assay: SPR, BIAcore T100, equilibrium KD).
Method: as §1

| Kd [nM] | Binder |
| --- | --- |
| 308 | B2 |
| 412 | B3 |
| 895 | B1 |

Each binder was assayed against Guinea Pig serum albumin (guinea pig) (assay: SPR, BIAcore T100, equilibrium KD).
Method: as §1

| Kd [nM] | Binder |
| --- | --- |
| 1630 | B3 |

The binders below were run against T1, Rabbit serum albumin (assay: SPR, BIAcore T100, equilibrium KD).
Method: as §1

| Kd [nM] | Binder |
| --- | --- |
| 136 | B2 |
| 1990 | B3 |

The binders below were run against Sheep serum albumin (sheep, UniProt P14639 25-607) (assay: SPR, BIAcore T100, equilibrium KD).
Method: as §1

| Kd [nM] | Binder |
| --- | --- |
| 569 | B2 |
| 637 | B1 |

What follows are binders tested against T2, Human serum albumin (assay: SPR, BIAcore 3000, serum albumin coupled to CM5 chip;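 note: Cross-reactivity of anti-serum albumin domain antibodies measured against human, cynomolgus monkey, rat and mouse serum albumin, binding kinetics giving Kd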).
Method: as §1

| Kd | Binder |
| --- | --- |
| 15 nM and 8 nM | B4 |
| 28 nM | B5 |
| 260 nM and 420 nM | B6 |
| 160 nM and 123 nM | B7 |
| 260 nM and 287 nM | B8 |
| 200 nM and 95 nM | B9 |
| 367 nM and 240 nM | B10 |
| 158 nM and 100 nM | B11 |
| 190 nM and 360 nM and 305 nM and 385 nM | B12 |
| 83.4 nM and 44.5 nM | B1 |
| 86 nM | B13 |
| 82 nM and 67 nM | B14 |
| 74 nM and 100 nM and 35 nM | B15 |
| 209 nM and 124 nM | B16 |
| 284 nM and 313 nM | B17 |
| 62 nM and 65 nM | B18 |

Each binder was assayed against T3, Cynomolgus serum albumin in the same assay as above.
Method: as §1

| Kd | Binder |
| --- | --- |
| 120 nM | B4 |
| 32 nM | B5 |
| 770 nM | B7 |
| 800 nM and 815 nM and 628 nM and 1500 nM | B12 |
| 127 nM | B1 |
| 72 nM | B13 |
| 430 nM | B19 |
| 265 nM | B14 |
| 87 nM and 230 nM | B15 |
| 149 nM and 360 nM | B20 |
| 840 nM and 1100 nM | B16 |
| 94 nM | B18 |

What follows are binders tested against T4, Rat serum albumin in the same assay as above.
Method: as §1

| Kd | Binder |
| --- | --- |
| 23 nM and 16 nM | B4 |
| 100 nM | B5 |
| 40 nM and 41 nM | B8 |
| 40 nM | B9 |
| 11.9 nM and 7.6 nM | B3 |
| 67 nM and 30 nM | B11 |
| 467 nM and 330 nM and 244 nM and 229 nM | B12 |
| 97.3 nM and 209 nM | B1 |
| 183 nM | B13 |
| 100 nM | B19 |
| 105 nM and 70 nM | B15 |
| 109 nM and 114 nM | B20 |
| 75 nM | B16 |
| 170 nM | B17 |
| 100 nM and 57 nM | B18 |

Each binder was assayed against T5, Mouse serum albumin in the same assay as above.
Method: as §1

| Kd | Binder |
| --- | --- |
| 33 nM and 90 nM | B2 |
| 56 nM | B4 |
| 280 nM | B5 |
| 6 nM and 12 nM and 14.2 nM | B21 |
| 5.4 nM and 12.7 nM | B8 |
| 466 nM | B1 |
| 250 nM | B19 |
| 37.6 nM | B14 |
| 100 nM | B15 |
| 184 nM and 313 nM | B20 |
| 113 nM and 73 nM | B16 |
| 270 nM | B18 |

These binders were tested against T4, Rat serum albumin (assay: SPR, BIAcore 3000, serum albumin coupled to CM5 chip; last of the independent measurements on different protein batches).

| Kd [nM] | Binder |
| --- | --- |
| 42 | B16 |

Each binder was assayed against T2, Human serum albumin (assay: SPR, BIAcore 3000, serum albumin coupled to CM5 chip; first of two independent measurements on different protein batches).
Method: as §1

| Kd [nM] | Binder |
| --- | --- |
| 89.1 | B3 |
| 82 | B20 |

The binders below were run against T2, Human serum albumin (assay: SPR, BIAcore 3000, serum albumin coupled to CM5 chip; second of two independent measurements on different protein batches).

| Kd [nM] | Binder |
| --- | --- |
| 9 | B20 |

What follows are binders tested against T2, Human serum albumin (assay: SPR, BIAcore 3000, serum albumin coupled to CM5 chip; second of two independent measurements; marked with an unexplained caret).
Method: as §1

| Kd [nM] | Binder |
| --- | --- |
| 81 | B3 |
